# “Also recorded” adds a separate entry of the source.
# Legend:
# [1] = system: human with chronic pain as a result of injury; assay: Use of Dihexa to treat chronic pain in a human (numeric rating scale, dolorimetric); format: in vivo; details: oral; for pain reported by the subject: 200 miligrams/day
# Procedure: Dihexa (N-hexanoic-Tyr-Ile-(6)aminohexanoic amide), an activator of c-Met receptor, is administered orally, 200 miligrams/day for 4 weeks, to a human for the purpose of treating pain. The subject is having chronic pain for the previous 6 months, as a result of injury. Before the beginning of treatment, and weekly thereafter for 6 months, the subject is tested for pain levels using a combination of subjective (numeric rating scale) and physiological (dolorimetric) evaluation methods.
# [2] = system: Mash1, DCX and Notch3 expression in spinal cord gray matter; assay: Immunofluorescence quantification of immature neuron markers in spinal cord gray matter; format: in vivo, rat; details: vs CCI+Veh
# [3] = system: rats subjected to chronic constriction injury of the sciatic nerve (CCI) or Sham surgery; assay: Thermal nociceptive sensitivity (Hargreaves method, radiant heat withdrawal latency) in CCI and Sham rats; format: in vivo, rat
# [4] = system: rats subjected to chronic constriction injury of the sciatic nerve (CCI) or Sham surgery; assay: Mechanical nociceptive sensitivity (von Frey filaments) in CCI and Sham rats; format: in vivo, rat
# [5] = system: human patient diagnosed with fibromyalgia; assay: Use of NT4 to treat pain in a human patient diagnosed with fibromyalgia; format: in vivo; details: for pain reported by the patient: injected into the spinal canal every other day for 3 weeks
# Procedure: NT4 is a TrkB ligand and inducer of neuronal differentiation that may be used to treat pain. NT4 (200 microliters, 1 microgram/ml) is injected every other day for 3 weeks (10 injections total) into the spinal canal of a human patient diagnosed with fibromyalgia. […] To prevent pain reoccurrence, a maintenance dose of 7,8-dihydroxy-4′-dimethylaminoflavone-8-O-glucozide (3-4 grams per day for 4-5 consecutive days) may be administered every month.
# [6] = intraperitoneal DHF treatment delayed for 3 weeks after CCI
# [7] = intrathecal BDNF treatment delayed for 3 weeks after CCI
# [8] = intrathecal injection every other day for first 3 weeks after CCI/Sham surgery, tested weekly, vs vehicle
molecule,measurement,setting,value
N-hexanoic-Tyr-Ile-(6)aminohexanoic amide [Dihexa],time until increased pain sensitivity may reoccur,[1]; 200 miligrams/day for 4 weeks,3 months
same,pain reported by the subject,[1]; after 2 weeks of treatment,decreased pain
same,pain reported by the subject,[1]; after 4 weeks of treatment,pain sensitivity is back to normal levels
"O=c1cc(-c2ccccc2)oc2c(O)c(O)ccc12 [DHF, 7,8-dihydroxyflavone, reference compound]","expression of immature neuron markers Mash1, DCX and Notch3","[2]; intraperitoneal injection every other day for 3 weeks after CCI, spinal cords taken after 4 weeks","reduces the expression of Mash1, DCX and Notch3; also recorded: reducing the expression of all three markers"
same,long-term thermal pain sensitivity,[3]; [6],extended long-term decrease in mechanical and thermal pain susceptibility; also recorded: long-term decrease in pain sensitivity
same,duration of the decrease in pain,[4]; DHF intraperitoneal treatment applied for only 3 weeks,3 months
same,long-term mechanical pain sensitivity,[4]; [6],extended long-term decrease in mechanical and thermal pain susceptibility; also recorded: long-term decrease in pain sensitivity
same,mechanical pain sensitivity / mechanical pain threshold,"[4]; intraperitoneal injection every other day for 3 weeks immediately after CCI/Sham surgery, vs vehicle",reduces long-term mechanical pain susceptibility; also recorded: long-term increase in mechanical pain threshold (decrease in pain sensitivity)
"BDNF: brain-derived neurotrophic factor, TrkB ligand and promoter of neuronal differentiation, injected intrathecally (protein) HSDPARRGELSVCDSISEWVTAADKKTAVDMSGGTVTVLEKVPVSKGQLKQYFYETKCNPMGYTKEGCRGIDKRHWNSQCRTTQSYVRALTMDSKKRIGWRFIRIDTSCVCTLTIKRGR","expression of immature neuron markers Mash1, DCX and Notch3","[2]; intrathecal injection every other day for 3 weeks after CCI, spinal cords taken at week 4","reduction in the expression of Mash1, DCX and Notch3; also recorded: reducing the expression of all three markers"
same,initial short-term increase in thermal pain sensitivity (duration),[3]; [7],2 to 3 days
same,long-term thermal pain sensitivity,[3]; [7],reduced thermal pain susceptibility; also recorded: long-term decrease in pain sensitivity
same,thermal nociceptive (pain) sensitivity,[3]; [8],may increase long-term sensitivity to thermal pain; also recorded: increased long-term thermal pain sensitivity
same,duration of the decrease in pain,[4]; BDNF intrathecal treatment applied for only 3 weeks,3 months
same,long-term mechanical pain sensitivity,[4]; [7],long-term reduction in pain and pain susceptibility; also recorded: long-term decrease in pain sensitivity
same,mechanical nociceptive (pain) sensitivity / mechanical pain threshold,[4]; [8],reduction in mechanical pain susceptibility (increased pain threshold); also recorded: long-term increase in mechanical pain threshold (decrease in pain sensitivity)
"NT4: neurotrophin 4, a TrkB ligand and inducer of neuronal differentiation (protein) GVSETAPASRRGELAVCDAVSGWVTDRRTAVDLRGREVEVLGEVPAAGGSPLRQYFFETRCKADNAEEGGPGAGGGGCRGVDRRHWVSECKAKQSYVRALTADAQGRVGWRWIRIDTACVCTLLSRTGRA",pain reported by the patient,[5]; after 2 weeks,decreased pain
same,pain reported by the patient,[5]; after 3-4 weeks,no pain
same,pain reported by the patient,[5]; after 4-5 days,increased pain
same,time after which the increase in pain subsides,"[5]; injected into the spinal canal every other day, with continued treatment",7 to 10 days
